Values of other authors in publication PMC7955094.

Columns and labels:
His37 = His37 (UniProt position 37, IIGILHLILWI); conditions: AM2 tetramer
His19 = His19 (UniProt position 19, ILSALHFMAWT); conditions: membrane-bound H27A BM2 tetramer

Substance	pKa (His37)	pKa (His19)
Influenza A virus M2 protein (AM2) proton channel (Influenza A virus (strain not stated))	5.9	–
Influenza B virus M2 protein (BM2) H27A mutant (Influenza B virus (strain of the quoted study not stated); H27A)	–	5.6
